We go through 1 substance from patent publication US20160257710A1, “SELECTIVE INHIBITORS OF PROTEINASE 3” (INSERM (INSTITUT NATIONAL DE LA SANTÉ ET LA RECHERCHE …, priority 2013, published 2016).

Where no end group is shown, it is not given here. [ ]: non-standard residue; d: D form. AlaP = not defined here

Holding throughout (format): biochemical
In assay [1] the target is T1, CatG (Homo sapiens, UniProt P08311).
T1 sequence (P08311 21-244): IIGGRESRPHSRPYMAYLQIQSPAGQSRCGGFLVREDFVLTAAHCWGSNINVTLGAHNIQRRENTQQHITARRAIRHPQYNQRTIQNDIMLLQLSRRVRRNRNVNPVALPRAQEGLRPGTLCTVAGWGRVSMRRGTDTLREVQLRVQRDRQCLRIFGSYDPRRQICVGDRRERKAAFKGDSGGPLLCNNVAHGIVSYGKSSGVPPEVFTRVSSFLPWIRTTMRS
As to the kind of experiment: Residual activity of purified protease with FRET substrate in presence of increasing amounts of compound. The settings on record: CatG 1 nM, same experimental conditions as PR3. From the text: (§1) Phosphonate inhibitors and their biotinylated and fluorescent derivatives were synthesized, purified and controlled by mass spectrometry as reported. Their purity was checked by HPLC (data not shown). Purified Ac-Asp-Tyr-Asp-Ala^P(O—C6H4-4-Cl)2 (compound 1) and Ac-Pro-Tyr-Asp-Ala^P(O—C6H4-4-Cl)2 (compound 2) were first assayed for their inhibitory properties by measuring the residual activity of the human neutrophil serine proteases PR3, HNE and CatG in the presence of increasing amounts of each compound. We used for this purpose the FRET substrates that we developed previously for each protease (18). An almost complete inhibition of PR3 (1 nM final) was obtained after a 30 min incubation time with 20 μM of compound 1 (FIG. 1) and 0.3 μM of compound 2 (FIG. 2). Recombinant PR3K99L, […], HNE and CatG were used in the same experimental conditions. […] This emphasizes the importance of the S2 and S4 subsites to discriminate between PR3 and HNE specificities. Significant inhibition of HNE was obtained using about 100 times more Ac-Pro-Tyr-Asp-Ala^P(O—C6H4-4-Cl)2 than required to inhibit PR3. […] We confirmed this observation kinetically by measuring the second order rate constants kobs/l by competition experiments between the PR3 substrate and each inhibitor (17). As expected the second order rate constant kobs/l for compound 2 was about 100 times greater than that for compound 1 (see Table 1).

Assay [2] has as its target T2, HNE (Homo sapiens, UniProt P08246).
T2 sequence (P08246 30-267): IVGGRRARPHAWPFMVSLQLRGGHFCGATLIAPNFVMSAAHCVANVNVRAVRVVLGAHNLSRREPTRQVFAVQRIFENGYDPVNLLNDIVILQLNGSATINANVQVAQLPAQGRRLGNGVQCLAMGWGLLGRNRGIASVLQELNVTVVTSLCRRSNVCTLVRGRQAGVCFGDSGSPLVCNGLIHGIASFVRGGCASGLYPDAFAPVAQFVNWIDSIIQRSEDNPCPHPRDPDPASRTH
The description is as above.
Source text: as §1

In assay [3] the target is T3, PR3 (Homo sapiens, UniProt P24158).
T3 construct: in a lysate of purified human neutrophils; endogenous in cells; host or cells: purified human neutrophils (lysate)
T3 sequence (P24158 28-248): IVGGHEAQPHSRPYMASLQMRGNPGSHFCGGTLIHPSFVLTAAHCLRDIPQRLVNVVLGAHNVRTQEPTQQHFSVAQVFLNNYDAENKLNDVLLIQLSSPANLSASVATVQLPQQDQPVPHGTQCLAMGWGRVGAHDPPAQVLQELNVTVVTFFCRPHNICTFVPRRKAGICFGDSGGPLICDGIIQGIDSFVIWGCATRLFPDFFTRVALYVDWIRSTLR
The description is as above. The note with it: PR3 1 nM final, 30 min incubation.
Source text: as §1

The target in assay [4] is T3, PR3. Description: Inhibition of PR3 in a lysate of purified human neutrophils. The settings on record: conditions as with purified proteases. From the text: We first studied the stability and the selectivity of compound 1, 2 and their biotinylated derivatives in a lysate of purified human neutrophils. […] Further, PR3 was selectively inactivated in the neutrophil lysate as shown by western blotting using biotinylated inhibitors.

The target of assay [5] is T3, PR3. Description: Inhibition of protease activity in crude lung secretions of patients (IPF, cystic fibrosis). The note with it: 30 min incubation, IPF and CF samples. The protocol: Crude lung secretions of patients with chronic inflammatory disorders associating significant neutrophil recruitment (IPF, Cystic fibrosis) were used as biological material to assay the efficacy of phosphonate inhibitors. We first measured the rate of cleavage of the PR3 substrate in >3 IPF and >3 CF crude samples before and after incubation with compounds 2 and 4 (×μM final). All crude samples cleaved the PR3 substrate in the absence of inhibitor and the cleavage always occurred at the expected bond, i.e. the cleavage bond of PR3, as checked by HPLC. The PR3 concentration was in the 0.1-1 μM range in lung secretions, based on the rate of substrate hydrolysis. […] Further, the rate of PR3 inactivation in a crude biological sample […] that of purified PR3, which means that there is no adverse effect impairing the PR3 inhibition in lung secretions of patients with inflammatory disorders.

Assay [6] addresses T2, HNE. The assay is described as above. The settings on record: 30 min incubation, IPF and CF samples.
The target of assay [7] is T1, CatG. The assay is described as above. The settings on record: 30 min incubation, IPF and CF samples.

In the case of “Ac-Pro-Tyr-Asp-Ala^P(O—C6H4-4-Cl)2 (Ac-PYD[AlaP]; not fully specified (C-terminus); printed as Ac-Pro-Tyr-Asp-Ala^P(O—C6H4-4-Cl)2; reading uncertain; also: C-terminal Ala as phosphonate analogue (Ala^P)) [Compound 2]”, the “inhibition of CatG” value in the assay with CatG [1] is “no significant inhibition”. In addition, in the assay with HNE [2], the “amount of inhibitor for significant inhibition of HNE relative to that required to inhibit PR3” value is listed as “about 100 times”. The “inhibition of HNE” value with HNE [2] (HNE 1 nM, same experimental conditions as PR3) is on record as “no significant inhibition”. Further, the “concentration giving almost complete inhibition of PR3” value with PR3 [3] came to 0.3 µM. Moreover, the “PR3 activity in neutrophil lysate” value with PR3 [4] is reported as “totally inactivated”. Besides, the “hydrolysis of PR3 substrate in crude lung secretions” value with PR3 [5] is given as “total inhibition”. In addition, in the assay with HNE [6], the “HNE activity in crude lung secretions” value is on record as “remained unchanged”. Further, the “CatG activity in crude lung secretions” value in the assay with CatG [7] is given as “remained unchanged”.
